This is an account of results in patent US20240270857A1 (CHIA TAI TIANQING PHARMACEUTICAL GROUP, published 2024).

T1: IL-36R naturally expressed on OVCAR8 cells and on normal human epidermal keratinocytes (NHK cells) (human, UniProt Q9HB29 20-575)
T1 sequence (looked up): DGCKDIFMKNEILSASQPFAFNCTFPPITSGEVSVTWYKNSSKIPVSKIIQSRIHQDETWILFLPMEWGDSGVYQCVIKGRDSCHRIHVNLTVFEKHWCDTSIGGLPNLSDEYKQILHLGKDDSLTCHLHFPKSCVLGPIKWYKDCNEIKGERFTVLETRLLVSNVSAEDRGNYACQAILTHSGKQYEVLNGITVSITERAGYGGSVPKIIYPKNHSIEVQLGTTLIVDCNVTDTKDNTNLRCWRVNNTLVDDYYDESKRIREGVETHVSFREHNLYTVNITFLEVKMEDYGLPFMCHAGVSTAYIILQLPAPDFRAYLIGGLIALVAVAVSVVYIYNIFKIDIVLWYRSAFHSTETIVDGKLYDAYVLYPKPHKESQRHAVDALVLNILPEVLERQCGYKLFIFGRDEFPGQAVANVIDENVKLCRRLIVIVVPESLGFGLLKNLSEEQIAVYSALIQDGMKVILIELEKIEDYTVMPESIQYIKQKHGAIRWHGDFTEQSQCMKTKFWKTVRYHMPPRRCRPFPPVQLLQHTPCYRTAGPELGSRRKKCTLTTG

T2: human IL-36R overexpressed on 293T-hIL36R-NFκB cells (human, UniProt Q9HB29 20-575)
T2 construct: Entry includes the signal peptide; also called IL1RL2; IL-1Rrp2
T2 sequence: T1 sequence (looked up)

T3: cynomolgus IL-36R overexpressed on 293T-CynoIL36R-NFκB cells (cynomolgus monkey)
T3 construct: Entry includes the signal peptide; also called monkey IL-36R
T3 chain: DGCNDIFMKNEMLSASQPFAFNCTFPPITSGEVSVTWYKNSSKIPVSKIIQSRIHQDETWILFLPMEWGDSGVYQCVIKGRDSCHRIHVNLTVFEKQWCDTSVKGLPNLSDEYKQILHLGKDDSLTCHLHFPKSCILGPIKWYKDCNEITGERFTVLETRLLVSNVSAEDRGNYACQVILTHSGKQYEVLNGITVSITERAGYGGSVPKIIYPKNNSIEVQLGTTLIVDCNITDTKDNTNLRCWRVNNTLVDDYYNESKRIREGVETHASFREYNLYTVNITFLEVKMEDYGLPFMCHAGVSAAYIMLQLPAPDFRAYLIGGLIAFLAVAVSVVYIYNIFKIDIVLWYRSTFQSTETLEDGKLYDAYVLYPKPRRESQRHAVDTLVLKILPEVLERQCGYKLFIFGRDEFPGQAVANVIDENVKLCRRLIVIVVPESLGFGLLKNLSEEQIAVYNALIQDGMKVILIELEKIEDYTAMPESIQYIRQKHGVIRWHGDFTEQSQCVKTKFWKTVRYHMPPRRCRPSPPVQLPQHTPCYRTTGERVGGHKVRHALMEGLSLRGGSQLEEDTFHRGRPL

B1: chimeric 84C4 antibody (antibody, human IgG4 S228P, kappa)
heavy: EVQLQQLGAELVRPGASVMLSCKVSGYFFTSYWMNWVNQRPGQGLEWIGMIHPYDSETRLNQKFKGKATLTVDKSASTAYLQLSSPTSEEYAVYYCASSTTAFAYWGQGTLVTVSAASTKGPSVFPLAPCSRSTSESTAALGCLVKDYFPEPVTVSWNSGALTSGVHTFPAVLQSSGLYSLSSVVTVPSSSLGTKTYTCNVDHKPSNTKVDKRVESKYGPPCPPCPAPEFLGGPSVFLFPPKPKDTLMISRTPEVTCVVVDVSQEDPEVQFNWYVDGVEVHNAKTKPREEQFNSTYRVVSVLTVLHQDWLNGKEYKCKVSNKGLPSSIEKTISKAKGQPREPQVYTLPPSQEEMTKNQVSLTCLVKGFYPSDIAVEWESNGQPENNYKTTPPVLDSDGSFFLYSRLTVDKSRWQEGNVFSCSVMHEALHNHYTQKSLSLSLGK
light: DILMTQSPSSLSASLGERVSLTCRASQDIGNALNWLQQAPDGTIKRLIYATSSLDPGVPKRFSGSRSGSDYSLTISSLASEDFVYYYCLQYASSPYTFGGGTKLEIKRTVAAPSVFIFPPSDEQLKSGTASVVCLLNNFYPREAKVQWKVDNALQSGNSQESVTEQDSKDSTYSLSSTLTLSKADYEKHKVYACEVTHQGLSSPVTKSFNRGEC
notes: Mouse variable regions on human IgG4 / kappa; also called xi84C4
B2: BI655130 (antibody, human IgG1, kappa, L234A L235A)
heavy: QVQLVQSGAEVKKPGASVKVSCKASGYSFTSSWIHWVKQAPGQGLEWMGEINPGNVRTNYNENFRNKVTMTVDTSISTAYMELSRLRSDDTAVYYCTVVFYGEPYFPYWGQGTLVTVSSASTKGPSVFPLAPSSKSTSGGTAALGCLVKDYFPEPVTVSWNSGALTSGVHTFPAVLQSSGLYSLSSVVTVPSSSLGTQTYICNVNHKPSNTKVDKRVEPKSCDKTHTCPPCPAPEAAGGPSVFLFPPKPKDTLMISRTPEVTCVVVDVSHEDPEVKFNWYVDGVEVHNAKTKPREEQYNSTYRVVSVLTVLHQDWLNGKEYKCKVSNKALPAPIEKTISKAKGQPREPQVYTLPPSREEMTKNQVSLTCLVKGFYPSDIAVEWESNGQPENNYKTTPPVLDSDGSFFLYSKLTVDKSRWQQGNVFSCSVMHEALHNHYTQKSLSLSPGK
light: QIVLTQSPGTLSLSPGERATMTCTASSSVSSSYFHWYQQKPGQAPRLWIYRTSRLASGVPDRFSGSGSGTDFTLTISRLEPEDAATYYCHQFHRSPLTFGAGTKLEIKRTVAAPSVFIFPPSDEQLKSGTASVVCLLNNFYPREAKVQWKVDNALQSGNSQESVTEQDSKDSTYSLSSTLTLSKADYEKHKVYACEVTHQGLSSPVTKSFNRGEC
notes: also called Spesolimab
B3: chimeric 72C1 antibody (antibody, human IgG4 S228P, kappa)
heavy: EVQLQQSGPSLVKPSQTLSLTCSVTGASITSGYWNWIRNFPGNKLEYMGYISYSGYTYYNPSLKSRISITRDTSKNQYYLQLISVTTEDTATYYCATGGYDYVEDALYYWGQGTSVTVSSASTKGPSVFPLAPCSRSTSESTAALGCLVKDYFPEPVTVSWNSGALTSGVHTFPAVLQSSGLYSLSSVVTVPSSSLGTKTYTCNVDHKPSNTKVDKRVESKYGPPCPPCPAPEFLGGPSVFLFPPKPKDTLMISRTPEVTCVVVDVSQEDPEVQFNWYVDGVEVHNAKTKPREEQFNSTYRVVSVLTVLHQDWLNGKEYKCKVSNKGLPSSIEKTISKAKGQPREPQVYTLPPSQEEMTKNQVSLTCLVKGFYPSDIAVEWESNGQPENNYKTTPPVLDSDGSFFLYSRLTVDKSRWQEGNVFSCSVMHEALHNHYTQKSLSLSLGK
light: EILLTQSPAIMSATLGEKVTMSCRASSNVRYMYWYQLKSGASPKLWIYLTSNLASGVPARFSGSGSGTSYSLTISSVEAEDAATYFCQQFTTSPYTFGGGTKLEIKRTVAAPSVFIFPPSDEQLKSGTASVVCLLNNFYPREAKVQWKVDNALQSGNSQESVTEQDSKDSTYSLSSTLTLSKADYEKHKVYACEVTHQGLSSPVTKSFNRGEC
notes: Mouse variable regions on human IgG4 / kappa; also called xi72C1
B4: hz84C4-1.1 (antibody, human IgG4 S228P, kappa, V domains shown)
VH: QVQLVQSGAEVKKPGASVKVSCKASGYFFTSYWMNWVRQAPGQGLEWMGMIHPYDSETRYAQKFQGRVTMTVDKSTSTVYMELSSLRSEDTAVYYCASSTTAFAYWGQGTLVTVSS
VL: DIQMTQSPSSLSASVGDRVTITCRASQDIGNALNWYQQKPGKAPKRLIYATSSLDPGVPSRFSGSRSGTDFTLTISSLQPEDFATYYCLQYASSPYTFGQGTKVEIKR
notes: Humanized, human IgG4 / kappa
B5: hz84C4-2.5 (antibody, human IgG4 S228P, kappa, V domains shown)
VH: B4 VH with A24V, R38N, Y60L, Q65K
VL: B4 VL with Y36L, F71Y
notes: Humanized, human IgG4 / kappa

Residue numbers refer to the chain shown, from its start.

One experiment addresses T1, IL-36R naturally expressed on OVCAR8 …. Put plainly: cell-based or functional assay.
For the molecule B1, the “IC50; IL-8 production of NHK cells stimulated with hIL36γ, inhibition rate %” value came to 0.125 nM.
The same measure, in the same setting: next, B2: 0.0387 nM.
Still for that read-out and setting: the value for B3 was 0.0486 nM.

The target in another experiment is T2, human IL-36R overexpressed on …. Put plainly: FACS on 293T-hIL36R-NFκB cells, ratio of MFI to background MFI. The protocol: (§1) After the cells was washed with PBS, the cells were resuspended with 100 μL of PBS and then the fluorescence signal was detected using a flow cytometer (BD, Accuri C6). […] The ratio was the ratio of mean fluorescence intensity (MFI) of the experimental group/the background MFI, and the resulting data were analyzed using GraphPad Prism.
Take B1: the EC50 (in general, the concentration that produces a half-maximal response) amounted to 0.886 nM.
Still for that read-out and setting: the value for B2 was 1.33 nM; that for B3 was 2.52 nM.

The target is the same in a further experiment. Put plainly: cell-based or functional assay.
As to B4, the “IC50 (M); hIL36α; NFκB-luciferase” value was determined as 8.82e-10 M, the “IC50 (M); hIL36αβγ; NFκB-luciferase” value turned out to be 1.82e-09 M, the “IC50 (M); hIL36β; NFκB-luciferase” value was found to be 9.28e-10 M and the “IC50 (M); hIL36γ; NFκB-luciferase” value worked out at 5.76e-10 M. In addition, the “Maximum inhibition rate %; hIL36α; NFκB-luciferase” value is 84.1%, the “Maximum inhibition rate %; hIL36αβγ; NFκB-luciferase” value (“Maximum inhibition rate %; hIL36αβγ” below) is 61.2%, the “Maximum inhibition rate %; hIL36β; NFκB-luciferase” value (“Maximum inhibition rate %; hIL36β” for short) amounted to 85.3% and the “Maximum inhibition rate %; hIL36γ; NFκB-luciferase” value (“Maximum inhibition rate %; hIL36γ” below) was determined as 83.5%.
On to B5, for which the “IC50 (M); hIL36α; NFκB-luciferase” value is 9.38e-10 M, the “IC50 (M); hIL36αβγ; NFκB-luciferase” value was roughly 1.55e-09 M, the “IC50 (M); hIL36β; NFκB-luciferase” value was determined as 7.66e-10 M and the “IC50 (M); hIL36γ; NFκB-luciferase” value is 3.5e-10 M. Moreover, the “Maximum inhibition rate %; hIL36α; NFκB-luciferase” value turned out to be 85.7%, the “Maximum inhibition rate %; hIL36αβγ” value was found to be 54.4%, the “Maximum inhibition rate %; hIL36β” value came to 83.1% and the “Maximum inhibition rate %; hIL36γ” value was 84.7%.
On to B2, for which the “IC50 (M); hIL36α; NFκB-luciferase” value was determined as 1.75e-09 M, the “IC50 (M); hIL36αβγ; NFκB-luciferase” value is 3.27e-09 M, the “IC50 (M); hIL36β; NFκB-luciferase” value came out at 2.21e-09 M and the “IC50 (M); hIL36γ; NFκB-luciferase” value was 1.1e-09 M. Further, the “Maximum inhibition rate %; hIL36α; NFκB-luciferase” value came out at 83.6%, the “Maximum inhibition rate %; hIL36αβγ” value is 63.3%, the “Maximum inhibition rate %; hIL36β” value was 85.2% and the “Maximum inhibition rate %; hIL36γ” value worked out at 81%.

A further experiment addresses T3, cynomolgus IL-36R overexpressed on …. Put plainly: FACS on 293T-CynoIL36R-NFκB cells, ratio of MFI to background MFI. The protocol:
as §1
B1: the EC50 was 36.6 nM.
As for B2, the concentration for a half-maximal effect (EC50) worked out at 9.64 nM.
Regarding B3, the EC50 was 8.96 nM.

In another experiment the target is T1, IL-36R naturally expressed on OVCAR8 …. Put plainly: cell-based or functional assay. This is another data set of the same source.
For B1, the “IC50; IL-8 production of NHK cells stimulated with hIL36β, inhibition rate %” value came out at 0.848 nM.
With B2, the “IC50; IL-8 production of NHK cells stimulated with hIL36β, inhibition rate %” value came out at 0.248 nM.
Still for that read-out and setting: the value for B3 was 0.474 nM.
